The results in this text go back to the RNAGym collection of RNA variant scans (doi:10.7554/elife.80360).

B1: HDV Ribozyme (parent)
chain: GGCCGGCAUGGUCCCAGCCUCCUCGCUGGCGCCGGCUGGGCAACAUUCCGAGGGGACCGUCCCCUCGGUAAUGGCGAAUGGGACCCA

The variants in the data set derive from B1. Briefly: self-cleavage, relative activity (ratio to wild type); higher = more cleavage; co-transcriptional.
Consider GGCCGGCAUCGUCCCAGCCUCCUCGCUGGCGCCUGCUGGGCAACAUUCCGAGGGGACCGUCCCCUCGGUAAUGGCGAAUGGGACCCA, for which the self-cleavage was 0.175.

Turning to GGCGGGCAUGGUCCCAGCCUCCUCGCUGGUGCCGGCUGGGCAACAUUCCGAGGGGACCGUCCCCUCGGUAAUGGCGAAUGGGACCCA, the self-cleavage came out at 0.0615.

As to GGCCGGCAUGGUCCCAGCCUCUUCGCUGGCGCCGGCUGGGCAACAUUCCGAGGGGACCGUCCCCUCGGUAAUUGCGAAUGGGACCCA, the self-cleavage was found to be 0.157.

On to GGACGGCAUGGUCCCAGCCUCCUCGCAGGCGCCGGCUGGGCAACAUUCCGAGGGGACCGUCCCCUCGGUAAUGGCGAAUGGGACCCA, for which the self-cleavage came out at 0.306.

On to GGCCGGCAUGGUCCCAGCCUCCUCGCUGGCGCCGGCUGAGCAACAUUCAGAGGGGACCGUCCCCUCGGUAAUGGCGAAUGGGACCCA, for which the self-cleavage stood at 0.573.

As for GGCCGGCAUGGUCCAAGCCUCCGCGCUGGCGCCGGCUGGGCAACAUUCCGAGGGGACCGUCCCCUCGGUAAUGGCGAAUGGGACCCA, the self-cleavage was 0.185.

On to GGCCGGCAUGGUCACAGCCUCCUCGCUGGCGCCGGCUGGGCAACCUUCCGAGGGGACCGUCCCCUCGGUAAUGGCGAAUGGGACCCA, for which the self-cleavage came to 0.199.

As for GGCCGGCAUGGUCCCAGCCUCCUCGCUGGCGCCGGCUAGGCAACAUUCCGAGGGGACCGUCCCCUCGGUAAUGGCGAAUGGGACUCA, the self-cleavage was found to be 0.128.

Turning to GGCCGGCAUGGUCCCAGCCUCCUCGCUGGCGCCGGAUGGGCAACAUUCCGAGGGGUCCGUCCCCUCGGUAAUGGCGAAUGGGACCCA, the self-cleavage is 0.229.

On to GGCCGGCAUGGUCCCAGCCUCCUCGCUGGCGCCGGCUGGGCAACAUUCCGAGGGGACCGUCCCCUCGGUAAUGGCGCAUGGGACCAA, for which the self-cleavage was 0.407.

In the case of GCCCGGCAUGGUCCCAGCCUCCUCGCUGGCGCCGGCUGGCCAACAUUCCGAGGGGACCGUCCCCUCGGUAAUGGCGAAUGGGACCCA, the self-cleavage is 0.122.

Regarding UGCCGGCAUGGUCCCAGCCUCCUCGCUGGCGCCGGCUGGGCAACAUUCCGAGGGGACCGUCCCCUCGGGAAUGGCGAAUGGGACCCA, the self-cleavage was 0.435.

As to GGCCGGCAUGGUCCCAGCCUCCUCGCUGGCGCCGGCUGUGCAACAUUCCGAGGGGACCGUCCCCUCGGUAAUGGCGAAUGAGACCCA, the self-cleavage was found to be 0.228.

With GGCCGGCAUGGUCCCAGCCUCCUCGCUGGCGCCGGCUGGGCAACAUUCCGAGGGGACCGUCCCCUCGGUAAUGGAGAAUGGGAACCA, the self-cleavage came out at 0.269.

For the variant GGCCGGCAUGGUCCCAGCCUCCUCGCUGGCGCCGGCUGGGCAACAUUCCGGGGGGACCGUCCCCUCGGUAAUGGCAAAUGGGACCCA, the self-cleavage is 0.91.

As to GGCCGGCAUGGUCCCAGCUUCCUCGCUGGCGCCGGCUGGGCAACAUUCUGAGGGGACCGUCCCCUCGGUAAUGGCGAAUGGGACCCA, the self-cleavage turned out to be 0.131.

With GGCCGGCAUGGUCCCAGCCUCCUCGCUGGCGCCGGCUCGGCAACAUUCCGAGGGGACCGUCCCCUCGGUAGUGGCGAAUGGGACCCA, the self-cleavage worked out at 0.166.

With GGCCGGCAUGGUCCCAGCCUCCUCGUUGGCGCCGGCUGGGCAACAUUCCGAGGGGACCGUCCCCUCGGUAAUGGCGAAUGGGGCCCA, the self-cleavage is 0.776.

Consider GGCCGGCAUGGUCCCAGCCUCCUCGCUGGCGCCGGCUGGGCAACAUUCCGAGGGGACCGUCCCCUCGGUAAUGGCGUGUGGGACCCA, for which the self-cleavage worked out at 0.443.

Turning to GGCCGGCAUGGUCCCAGCCUCCUCGCUGGCGCCGGCUGGGCAACAUUCCGAGGGGACCGUCCCCUCGGCACUGGCGAAUGGGACCCA, the self-cleavage was determined as 0.475.

GGCCGGCAUGGCCCCAGCCUCCUCGCUGGUGCCGGCUGGGCAACAUUCCGAGGGGACCGUCCCCUCGGUAAUGGCGAAUGGGACCCA: the self-cleavage was 0.156.

On to GGCCGGCAUGGUCCCAGCCGCCUCGCUGGCGGCGGCUGGGCAACAUUCCGAGGGGACCGUCCCCUCGGUAAUGGCGAAUGGGACCCA, for which the self-cleavage came to 0.0475.

With GGCCGGCAUGGUCCCAGCCUCCUCGCUGGCGCCGGCUGGGCAACAUUCCGAAGGGACCGUCCCCUCGCUAAUGGCGAAUGGGACCCA, the self-cleavage turned out to be 0.436.

Regarding GGCCGGCAUGGUCUCAGCCUCCUCGCUGGCGCCGGCUGGGCAACAUUCGGAGGGGACCGUCCCCUCGGUAAUGGCGAAUGGGACCCA, the self-cleavage was determined as 0.831.

Regarding GGCCGGCAUGGUCCCAGCCUCCUCGCUGGCGCCUGCUGGGCAACAUUCCGAGGGGACCGUCCCCUCGGUAAUGACGAAUGGGACCCA, the self-cleavage was 0.0821.

Regarding GGCCGGCAUGGUCCCAGCCUCCUCGCUGGCGCUGGCUGGGCAACAUUCCGAGGGGACCGUCUCCUCGGUAAUGGCGAAUGGGACCCA, the self-cleavage came to 0.816.

As to GGCCGGCAUGGUCCCAGCCUCCUCGCUUGCGCCGGCUGGGCAACAUUCCGAGGGGACCGUUCCCUCGGUAAUGGCGAAUGGGACCCA, the self-cleavage is 0.193.

For GGCCGGCAUGAUCCCAGCCUCCUCGCUGGCGCCGGCUGGGCAGCAUUCCGAGGGGACCGUCCCCUCGGUAAUGGCGAAUGGGACCCA, the self-cleavage is 0.0791.

Consider GGCCGGCAUGGUCCCAGUCUCCUCGCUGGCGCCGGCUGGGCAACAUUCCGAGGGGACCGUACCCUCGGUAAUGGCGAAUGGGACCCA, for which the self-cleavage came out at 0.709.

For GGCCGGAAUGGUCCCAGCCUCCUCGCUGGCGCCGGCUGGGCAACAUUCCGAGGGGACCGUCCUCUCGGUAAUGGCGAAUGGGACCCA, the self-cleavage was 0.652.

With GGCCGGCAUGGUCCCAGCUUCCUCGCUGGCGCCGGCUGGGCACCAUUCCGAGGGGACCGUCCCCUCGGUAAUGGCGAAUGGGACCCA, the self-cleavage worked out at 0.111.

Take GGCCGGUAUGAUCCCAGCCUCCUCGCUGGCGCCGGCUGGGCAACAUUCCGAGGGGACCGUCCCCUCGGUAAUGGCGAAUGGGACCCA: the self-cleavage came to 0.423.

Turning to GGCCGGCAUGGUCCCAGCCUCCUCGCUGGCGCCGGCUGGGCAACAUUCCGAGGGGACCGUCCCCUCGGUAUUGGCGACUGGGACCCA, the self-cleavage came out at 0.188.

Turning to GGCCGGCAUGGUCCCAGCCUCCCCGCUGGCGCCGGCUGGGCAACAUUCCGAGGGGACCGUCCCCUCGGGAAUGGCGAAUGGGACCCA, the self-cleavage was 0.739.

Regarding UGCCGGCAUGGUCCCAGACUCCUCGCUGGCGCCGGCUGGGCAACAUUCCGAGGGGACCGUCCCCUCGGUAAUGGCGAAUGGGACCCA, the self-cleavage came out at 0.304.

Regarding GGCCGGCAUGGUCCCAGCCUCCUCGCUGUUGCCGGCUGGGCAACAUUCCGAGGGGACCGUCCCCUCGGUAAUGGCGAAUGGGACCCA, the self-cleavage stood at 0.0779.

On to GGCCGGCAUGGUCCCAGACUCCUCGCUGGCGCCGGCUGGGCAACAUUCCGAGGGGACCGUCCCCUGGGUAAUGGCGAAUGGGACCCA, for which the self-cleavage was determined as 0.0639.

GGCCGGCAUGGUACCAGCCUCCUCGCUGGCGCCGGCUGGGCAACAUUCCGUGGGGACCGUCCCCUCGGUAAUGGCGAAUGGGACCCA: the self-cleavage came to 0.172.

In the case of GGCCGGCAUGGUCCCAGCCUCCUCGCUGGCGCCGGCUGGGCAACAUUCCGAGGGGCCCGUCCCCUCGGUAAUGGCGAACGGGACCCA, the self-cleavage was 0.379.

GGCCGGCAUGGUCCCAGCCUCCUCGCUGGCUCCGGCUGGGCAACAUUCCGAGGGGACCGUCCCCUUGGUAAUGGCGAAUGGGACCCA: the self-cleavage came out at 0.437.

With GGCCGGCAUGGUCCCAGCCUCCUCGCUGGCGCCGGCUGGGCAACAUUCCGAGGGGACCGUCCCUUCGGUAAUGGCGGAUGGGACCCA, the self-cleavage came to 1.01.

GUCCGGCAUGGUCCCAGCCUCCUCGCUGGCGCCGGCUGGGCAACAUUCCGAGGGGACCGUCCCCUCGGUAAUGGCGAGUGGGACCCA: the self-cleavage came out at 0.089.

As for GGCCGGCAUGGUCCCAGCCUCCUCGCUGGCGCCGGCUGGGCCACAUUCCGAGGGGACCGUCCCCUCGGUAAUGGCGAAAGGGACCCA, the self-cleavage stood at 0.213.

For GGCCGGCAUGGUCCCAGUCUCCUCGCUGGCGCCGGCUGCGCAACAUUCCGAGGGGACCGUCCCCUCGGUAAUGGCGAAUGGGACCCA, the self-cleavage was 0.0405.

Regarding GGCCGGCAUGGUCCGAGCCUCCUCGCUGGCGCCGGCUGGGCAACAUUCCGAGAGGACCGUCCCCUCGGUAAUGGCGAAUGGGACCCA, the self-cleavage worked out at 0.353.

For GGCCGGCAUGGUCCCAGCCUCCUAGCUGGCGCCGGCUUGGCAACAUUCCGAGGGGACCGUCCCCUCGGUAAUGGCGAAUGGGACCCA, the self-cleavage worked out at 0.0791.

As to GGCCGGCCUGGUCCCAGCCUCCUCGCUGGCGCCGGCUGGGCAACAUUCCGAGGGGACCGUCCCCUCGGUAAUUGCGAAUGGGACCCA, the self-cleavage worked out at 0.264.

GGCCGGCAUGGUCCCAGCCUCCGCGCUGGCGCCUGCUGGGCAACAUUCCGAGGGGACCGUCCCCUCGGUAAUGGCGAAUGGGACCCA: the self-cleavage was 0.0959.

GGCCGGCAUGGUCCCAGCCUCCUCGCUGGCGCCGGCUGUGCAACAUUCCGAGGGGACCGUCCCCUCGGUGAUGGCGAAUGGGACCCA: the self-cleavage was 0.637.

On to GGCCGGCAUGGUCCCAGCCUCCUCGCUGGCGCCGGCUGGGCAACAUUCCGAGGGGCCCGUCCCCUCGGUAAUGGCGAAUGGGACGCA, for which the self-cleavage worked out at 1.04.

For the variant GGCCGGCAUGGUCCCAGCCUCCUCGCUGCCGCCGGCUGGGCAACAUUGCGAGGGGACCGUCCCCUCGGUAAUGGCGAAUGGGACCCA, the self-cleavage worked out at 0.095.

In the case of GGCCGGCAUGGUCCCAGCCUCCUCGCUGGCGCCGGCUGGGCAACAUUCCGAGGGGACCGUCCCCUCGGUAAUGGCGGAUGGGAGCCA, the self-cleavage is 0.573.

With GGCCGGCCUGGUCCCAGCCUCCUCGCUGGCGCCGGCUGGGCAACAUUGCGAGGGGACCGUCCCCUCGGUAAUGGCGAAUGGGACCCA, the self-cleavage turned out to be 0.175.

As to GGCCGGCAUGGUCCCAGCCUCCGCGCUGGCGCCGGCUGGGCAACAUUCCGACGGGACCGUCCCCUCGGUAAUGGCGAAUGGGACCCA, the self-cleavage was determined as 0.807.

Consider GGGCGGCAUGGUCCCAGCCUCCUCGCUGGCGCCGGCUGGGCAACAUUCCGAGGGGACCCUCCCCUCGGUAAUGGCGAAUGGGACCCA, for which the self-cleavage was determined as 0.903.

Regarding GGCCGGCAUGGUCCCAGCCUCCUCGCUGGCGCCGGCUGCGCAACAUUCCGAGGAGACCGUCCCCUCGGUAAUGGCGAAUGGGACCCA, the self-cleavage was 0.188.

Regarding GGCCGCCAUGCUCCCAGCCUCCUCGCUGGCGCCGGCUGGGCAACAUUCCGAGGGGACCGUCCCCUCGGUAAUGGCGAAUGGGACCCA, the self-cleavage came out at 0.138.

For the variant GGCCGGCAUGGUCCCAGCCUCCUCGCUGGCGCCGGCUGGGCAACAUUCCGAGGGGACCGUCCCCUCGGUAUUGGGGAAUGGGACCCA, the self-cleavage amounted to 0.0852.

With GGCCGGCAUGGUCCCAGCCUCCUCGCUGGCGCCGGGUGGGCAACAUUCCGAGGGGACCGUCCCCUCGGUGAUGGCGAAUGGGACCCA, the self-cleavage turned out to be 0.147.

As for GGCCGGCAUGGUCCCAGCCUCUUCGCUGGCGACGGCUGGGCAACAUUCCGAGGGGACCGUCCCCUCGGUAAUGGCGAAUGGGACCCA, the self-cleavage worked out at 0.117.

Turning to GGCCGGCAUGGUCCCAGCCUCCUCGCUGGCGCCGGCUGGGCAACAUUCCGAGGGGACCGUCCCCUCUGUAAUGACGAAUGGGACCCA, the self-cleavage was 0.379.

As for GGCCGGCAUGGUCCCAGCCUCCUCGCUGGCGCCGGCUGGGCUACAUUCCGAGGGGACCGUCCCCUCGGAAAUGGCGAAUGGGACCCA, the self-cleavage stood at 0.364.

Take GGCCGGCAUGGUCCCAGCCUCCUCGCUGGCGCCGGAUGGGCAACAUUCCGAGGGGACCGUCCCCUCGGUAAUGGAGAAUGGGACCCA: the self-cleavage amounted to 0.175.

As to GGCCGGCAUGGUCCCAGCCUCCUAGCUGGCGCCGGCUGGGCAACAUUCCGAGGGGACCGUCCCCUCGGUAAUGGCGAUUGGGACCCA, the self-cleavage came to 0.0923.
